Data set [1] deals with T1, LigA, alpha subunit of protocatechuate 4,5-dioxygenase (LigAB), wild-type (Sphingobium sp. strain SYK-6, UniProt P22635 1-139).
T1 construct: Protocatechuate 4,5-dioxygenase alpha chain (LigA), Sphingobium sp. strain SYK-6; 17.711 kDa with the His6-tag; also called α subunit; source: E. coli BL21, pET15b, co-expressed with LigB; in lysate and purified (Ni-NTA); not shown: His6, N-terminal, kept
T1 sequence: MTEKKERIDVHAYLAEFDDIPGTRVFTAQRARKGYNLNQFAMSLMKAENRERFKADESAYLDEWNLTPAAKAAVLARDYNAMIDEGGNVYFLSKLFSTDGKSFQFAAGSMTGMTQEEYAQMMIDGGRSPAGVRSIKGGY
In words: pull-down; co-purification of untagged LigB with His6-LigA on HisPur Ni-NTA resin from lysate of co-expressing E. coli, aerobic; 50 mM HEPES, 300 mM NaCl, pH 8.0, imidazole step gradient (62.5, 125, 250 mM); fractions on SDS-PAGE, Coomassie, quantified with ImageQuant. The conditions noted are these: partners not purified.

In data set [2] the target is T2, LigA F103A (Sphingobium sp. strain SYK-6, UniProt P22635 1-139, F103A).
T2 construct: Protocatechuate 4,5-dioxygenase alpha chain (LigA), Sphingobium sp. strain SYK-6, with F103A; Site-directed mutagenesis as described by Barry et al; also called F103α to alanine; source: E. coli BL21, pET15b, co-expressed with LigB; in lysate and purified (Ni-NTA); not shown: His6, N-terminal, kept
T2 sequence: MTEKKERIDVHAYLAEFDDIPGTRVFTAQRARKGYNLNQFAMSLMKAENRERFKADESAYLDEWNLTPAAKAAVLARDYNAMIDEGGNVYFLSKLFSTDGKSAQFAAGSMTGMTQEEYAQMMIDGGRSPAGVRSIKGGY
The data set is described as above. The conditions noted are these: partners not purified.

For data set [3], the target named is T3, LigA F103V (Sphingobium sp. strain SYK-6, UniProt P22635 1-139, F103V).
T3 construct: Protocatechuate 4,5-dioxygenase alpha chain (LigA), Sphingobium sp. strain SYK-6, with F103V; Site-directed mutagenesis as described by Barry et al; source: E. coli BL21, pET15b, co-expressed with LigB; in lysate; not shown: His6, N-terminal, kept
T3 sequence: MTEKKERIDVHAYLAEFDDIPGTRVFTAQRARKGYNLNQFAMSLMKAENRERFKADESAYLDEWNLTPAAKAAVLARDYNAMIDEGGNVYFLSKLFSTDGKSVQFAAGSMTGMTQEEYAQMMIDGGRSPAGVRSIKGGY
The data set is described as above. Particulars: partners not purified.

Data set [4] concerns the target T4, LigA F103L (Sphingobium sp. strain SYK-6, UniProt P22635 1-139, F103L).
T4 construct: Protocatechuate 4,5-dioxygenase alpha chain (LigA), Sphingobium sp. strain SYK-6, with F103L; Site-directed mutagenesis as described by Barry et al; source: E. coli BL21, pET15b, co-expressed with LigB; in lysate; not shown: His6, N-terminal, kept
T4 sequence: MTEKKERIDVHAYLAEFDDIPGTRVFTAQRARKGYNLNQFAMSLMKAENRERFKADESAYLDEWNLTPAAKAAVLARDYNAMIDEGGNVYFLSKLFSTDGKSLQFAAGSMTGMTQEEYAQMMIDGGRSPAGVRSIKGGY
Described as above. Particulars: partners not purified.

The target of data set [5] is T5, LigA F103S (Sphingobium sp. strain SYK-6, UniProt P22635 1-139, F103S).
T5 construct: Protocatechuate 4,5-dioxygenase alpha chain (LigA), Sphingobium sp. strain SYK-6, with F103S; Site-directed mutagenesis as described by Barry et al; source: E. coli BL21, pET15b, co-expressed with LigB; in lysate and purified (Ni-NTA); not shown: His6, N-terminal, kept
T5 sequence: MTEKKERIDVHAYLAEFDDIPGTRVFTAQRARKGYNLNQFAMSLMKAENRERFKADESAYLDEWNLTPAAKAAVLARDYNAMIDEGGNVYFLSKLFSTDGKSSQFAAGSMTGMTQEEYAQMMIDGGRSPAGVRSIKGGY
The description is as above. The conditions noted are these: partners not purified.

For data set [6], the target named is T6, LigA F103T (Sphingobium sp. strain SYK-6, UniProt P22635 1-139, F103T).
T6 construct: Protocatechuate 4,5-dioxygenase alpha chain (LigA), Sphingobium sp. strain SYK-6, with F103T; Site-directed mutagenesis as described by Barry et al; source: E. coli BL21, pET15b, co-expressed with LigB; in lysate; not shown: His6, N-terminal, kept
T6 sequence: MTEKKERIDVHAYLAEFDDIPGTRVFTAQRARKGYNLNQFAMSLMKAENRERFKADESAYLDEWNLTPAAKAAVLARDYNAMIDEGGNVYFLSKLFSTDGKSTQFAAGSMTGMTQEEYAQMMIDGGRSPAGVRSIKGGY
The description is as above. Particulars: partners not purified.

The target in data set [7] is T7, LigA F103H (Sphingobium sp. strain SYK-6, UniProt P22635 1-139, F103H).
T7 construct: Protocatechuate 4,5-dioxygenase alpha chain (LigA), Sphingobium sp. strain SYK-6, with F103H; Site-directed mutagenesis as described by Barry et al; source: E. coli BL21, pET15b, co-expressed with LigB; in lysate; not shown: His6, N-terminal, kept
T7 sequence: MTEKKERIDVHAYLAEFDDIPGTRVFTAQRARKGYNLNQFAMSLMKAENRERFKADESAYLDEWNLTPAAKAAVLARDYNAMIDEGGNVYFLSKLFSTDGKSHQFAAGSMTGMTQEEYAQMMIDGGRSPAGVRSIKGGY
The data set is described as above. The conditions noted are these: partners not purified.

Data set [8] deals with the molecule itself. In words: native gel or EMSA; 10% native polyacrylamide gel of purified LigAB (wild-type, F103A, F103S), Coomassie stained, 6.25 to 50 ug protein per lane; masses calculated from the bands.

Several values for one entry are separate records, joined by “and”; a condition that tells them apart may be missing. Identical values can stand only once.

B1: LigB, beta subunit of protocatechuate 4,5-dioxygenase (LigAB) (natural protein, Sphingobium sp. strain SYK-6)
chain: MARVTTGITSSHIPALGAAIQTGTSDNDYWGPVFKGYQPIRDWIKQPGNMPDVVILVYNDHASAFDMNIIPTFAIGCAETFKPADEGWGPRPVPDVKGHPDLAWHIAQSLILDEFDMTIMNQMDVDHGCTVPLSMIFGEPEEWPCKVIPFPVNVVTYPPPSGKRCFALGDSIRAAVESFPEDLNVHVWGTGGMSHQLQGPRAGLINKEFDLNFIDKLISDPEELSKMPHIQYLRESGSEGVELVMWLIMRGALPEKVRDLYTFYHIPASNTALGAMILQPEETAGTPLEPRKVMSGHSLAQA
notes: Protocatechuate 4,5-dioxygenase beta chain (LigB), Sphingobium sp. strain SYK-6; 33.292 kDa; untagged; also called β subunit; source: E. coli BL21, pET15b, co-expressed with His6-LigA (wild-type or mutant); in lysate and co-purified (Ni-NTA)
With B1, the “α:β ratio of abundances in elution fractions E3-1 to E3-5” value in data set [1] came to 1.08; in data set [2], 0.817; in data set [3], 0.79; in data set [4] it was 0.879; in data set [5], 1.04; in data set [6] it was 1.64. Further, in data set [7], the “α:β ratio of abundances in elution fractions E3-1 to E3-5” value turned out to be 2.19. The “β:α ratio of abundances in elution fractions E3-1 to E3-5” value in data set [1] was determined as 0.928; in data set [2], 1.22; in data set [3], 1.27; in data set [4] it was 1.14; in data set [5] it was 0.959; in data set [6], 0.608. Moreover, the “β:α ratio of abundances in elution fractions E3-1 to E3-5” value in data set [7] turned out to be 0.456.

B2: LigAB α/β heterodimer with LigA F103S (complex, Sphingobium sp. strain SYK-6)
chain 1: MTEKKERIDVHAYLAEFDDIPGTRVFTAQRARKGYNLNQFAMSLMKAENRERFKADESAYLDEWNLTPAAKAAVLARDYNAMIDEGGNVYFLSKLFSTDGKSSQFAAGSMTGMTQEEYAQMMIDGGRSPAGVRSIKGGY
chain 2: MARVTTGITSSHIPALGAAIQTGTSDNDYWGPVFKGYQPIRDWIKQPGNMPDVVILVYNDHASAFDMNIIPTFAIGCAETFKPADEGWGPRPVPDVKGHPDLAWHIAQSLILDEFDMTIMNQMDVDHGCTVPLSMIFGEPEEWPCKVIPFPVNVVTYPPPSGKRCFALGDSIRAAVESFPEDLNVHVWGTGGMSHQLQGPRAGLINKEFDLNFIDKLISDPEELSKMPHIQYLRESGSEGVELVMWLIMRGALPEKVRDLYTFYHIPASNTALGAMILQPEETAGTPLEPRKVMSGHSLAQA
notes: Protocatechuate 4,5-dioxygenase alpha chain (LigA), Sphingobium sp. strain SYK-6, with F103S; as m6; Protocatechuate 4,5-dioxygenase beta chain (LigB), Sphingobium sp. strain SYK-6; as m2; The heterodimer as the unit that associates with itself in the native gel; also called F103S variant; source: E. coli BL21, pET15b, co-expressed, purified (Ni-NTA); not shown: His6, N-terminal, kept
Consider B2, for which the “stoichiometry N” value in data set [8] was 3 and 6.

B3: LigAB α/β heterodimer, wild-type (protocatechuate 4,5-dioxygenase) (complex, Sphingobium sp. strain SYK-6)
chain 1: MTEKKERIDVHAYLAEFDDIPGTRVFTAQRARKGYNLNQFAMSLMKAENRERFKADESAYLDEWNLTPAAKAAVLARDYNAMIDEGGNVYFLSKLFSTDGKSFQFAAGSMTGMTQEEYAQMMIDGGRSPAGVRSIKGGY
chain 2: MARVTTGITSSHIPALGAAIQTGTSDNDYWGPVFKGYQPIRDWIKQPGNMPDVVILVYNDHASAFDMNIIPTFAIGCAETFKPADEGWGPRPVPDVKGHPDLAWHIAQSLILDEFDMTIMNQMDVDHGCTVPLSMIFGEPEEWPCKVIPFPVNVVTYPPPSGKRCFALGDSIRAAVESFPEDLNVHVWGTGGMSHQLQGPRAGLINKEFDLNFIDKLISDPEELSKMPHIQYLRESGSEGVELVMWLIMRGALPEKVRDLYTFYHIPASNTALGAMILQPEETAGTPLEPRKVMSGHSLAQA
notes: Protocatechuate 4,5-dioxygenase alpha chain (LigA), Sphingobium sp. strain SYK-6; as m1; Protocatechuate 4,5-dioxygenase beta chain (LigB), Sphingobium sp. strain SYK-6; as m2; The heterodimer as the unit that associates with itself in the native gel; also called wild-type LigAB; WT-LigAB; source: E. coli BL21, pET15b, co-expressed, purified (Ni-NTA); not shown: His6, N-terminal, kept
As to B3, the “stoichiometry N” value in data set [8] was 3.

B4: LigAB α/β heterodimer with LigA F103A (complex, Sphingobium sp. strain SYK-6)
chain 1: MTEKKERIDVHAYLAEFDDIPGTRVFTAQRARKGYNLNQFAMSLMKAENRERFKADESAYLDEWNLTPAAKAAVLARDYNAMIDEGGNVYFLSKLFSTDGKSAQFAAGSMTGMTQEEYAQMMIDGGRSPAGVRSIKGGY
chain 2: MARVTTGITSSHIPALGAAIQTGTSDNDYWGPVFKGYQPIRDWIKQPGNMPDVVILVYNDHASAFDMNIIPTFAIGCAETFKPADEGWGPRPVPDVKGHPDLAWHIAQSLILDEFDMTIMNQMDVDHGCTVPLSMIFGEPEEWPCKVIPFPVNVVTYPPPSGKRCFALGDSIRAAVESFPEDLNVHVWGTGGMSHQLQGPRAGLINKEFDLNFIDKLISDPEELSKMPHIQYLRESGSEGVELVMWLIMRGALPEKVRDLYTFYHIPASNTALGAMILQPEETAGTPLEPRKVMSGHSLAQA
notes: Protocatechuate 4,5-dioxygenase alpha chain (LigA), Sphingobium sp. strain SYK-6, with F103A; as m3; Protocatechuate 4,5-dioxygenase beta chain (LigB), Sphingobium sp. strain SYK-6; as m2; The heterodimer as the unit that associates with itself in the native gel; also called F103A mutant enzyme; source: E. coli BL21, pET15b, co-expressed, purified (Ni-NTA); not shown: His6, N-terminal, kept
As to B4, in data set [8], the binding result is given as “binds”.

(Values after publication PMC10094722, “How Single Amino Acid Substitutions Can Disrupt a Protein Hetero-Dimer Interface: Computational and Experimental Studies of the LigAB Dioxygenase from Sphingobium sp. Strain SYK-6” (International Journal of Molecular Sciences, 2023).)
